The target of this experiment is human HLA-A2 (human). In words: single colony ELISA; soluble scFv supernatant on coated HLA-A2 (0.5 µg/well), anti-E-tag-HRP detection.

B1: scFv clone 3E10 (scFv)
scFv: DIQMTQSPSSLSASVGDRVTITCRASQDVFFFVAWYQQKPGKAPKLLIYGPPGLYSGVPSRFSGSGSGTDFTLTISSLQPEDFATYYCQQYFSFPITFGQGTKVEIKRGGGGSIEGRSGGGGSEVQLVESGGGLVQPGGSLRLSCAASGFTISNGGIHWVRQAPGKGLEWVASIWPSGGYTSYADSVKGRFTISADTSKNTAYLQMNSLRAEDTAVYYCARFGVNYHGIMDYWGQGTLVTVSS
With B1, the OD450 amounted to 1.3 OD450.
